Measurements as given in patent US20080152587A1 (Amgen, published 2008).
Values belong to the binder of their own block, whether it stands above or below them.

Legend:
[1] = target: T1, soluble recombinant human uPAR/His6 (R&D Systems, Cat. # 807-UK-100) (human, UniProt Q03405 23-303); assay: high resolution Biacore
T1 construct: range 1-303; Bought protein; also called soluble uPAR; hu-uPAR
Description: All mAbs were diluted into 10 mM sodium acetate, pH 4.0 for immobilization. […] All experiments were run at 23° C. with a flow rate of 100 μL/min. Serially diluted (2-fold) uPAR samples were randomly injected in triplicate for 90 seconds with several buffer injections interspersed for double referencing. A Biacore™ 2000 biosensor instrument was used for all high resolution experiments. Data were fit globally to a 1:1 interaction model with a term for mass transport included.

[2] = target: T2, recombinant cynomolgus uPAR ECD with C-terminal His tag (cynomolgus monkey, UniProt Q9GK78 23-303); assay: KinExA, solution equilibrium, human uPAR beads capture free antibody
T2 construct: Used as conditioned medium of transfected HEK293 cells
Description: Kinetic measurements of several of the antibodies were evaluated using the KinExA® method. This method involves solution-based determination of formal affinity measurements at equilibrium. […] The remaining active groups on the beads were blocked with 10 mg/ml BSA in 1 M Tris and stored in the blocking solution as recommended by the manufacturer. KinExA experiments were performed using an automated flow immunoassay system, KinExA 3000, in which beads coupled with human uPAR served as the solid phase.
The mixture was drawn through the human uPAR-coupled beads to accumulate unbound antibody. The captured antibody was detected using solutions containing a Cy5-conjugated goat anti-human IgG heavy and light chain specific secondary antibody in sample buffer. […] Three replicates of each sample were measured for all equilibrium experiments. The equilibrium dissociation constant (KD) was obtained from nonlinear regression analysis of the data using a one-site homogeneous binding model with an unknown ligand concentration contained within the KinExA software.

[3] = target: T1, soluble recombinant human uPAR/His6 …; assay: limited antigen ELISA, uPAR coat 20 ng/mL, sample 1:25
Target sequence in this assay (Q03405 other isoform, or with tags, fused parts or gaps limits assumed, form in doubt): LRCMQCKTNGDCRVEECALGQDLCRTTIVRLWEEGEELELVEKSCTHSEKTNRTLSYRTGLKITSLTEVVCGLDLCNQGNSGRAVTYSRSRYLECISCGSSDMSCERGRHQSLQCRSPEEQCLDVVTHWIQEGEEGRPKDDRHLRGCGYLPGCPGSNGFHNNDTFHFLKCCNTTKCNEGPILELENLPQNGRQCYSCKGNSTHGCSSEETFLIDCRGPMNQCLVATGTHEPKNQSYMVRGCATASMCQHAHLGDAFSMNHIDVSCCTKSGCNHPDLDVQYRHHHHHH
Description: ELISA plates were coated with a lower amount ofuPAR in comparison with the High Antigen Quantitation assay described below (320, 160, 80, 40 and 20 ng/mL). Samples containing one concentration of antibody (Ab) (1:25 dilution) were incubated overnight to allow Ab binding to approach equilibrium.

[4] = target: T3, lane 3: murine DI-human DII/DIII uPAR chimera (His-tagged); assay: Western blot of HEK293T culture supernatants with His-tagged uPAR proteins, probed with the antibody
T3 construct: The sheet prints only the lane number; also called Murine D1/Human D2D3; murine D1/humanD2D3
T3 uPAR ECD chimera: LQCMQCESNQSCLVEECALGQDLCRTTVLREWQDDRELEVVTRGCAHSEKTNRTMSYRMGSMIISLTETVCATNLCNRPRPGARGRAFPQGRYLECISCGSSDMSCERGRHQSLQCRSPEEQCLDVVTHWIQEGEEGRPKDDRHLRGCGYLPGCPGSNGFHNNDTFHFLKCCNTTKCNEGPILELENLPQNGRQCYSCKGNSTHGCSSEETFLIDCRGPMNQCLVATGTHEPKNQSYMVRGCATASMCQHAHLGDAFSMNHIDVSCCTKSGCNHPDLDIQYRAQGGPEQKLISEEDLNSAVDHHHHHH
Excerpt: (§1) Human-murine uPAR chimeras (His-tagged) were expressed in BEK293T cells and uPAR expression was detected using the anti-human uPAR mAbs as indicated.
(§2) Chimeric human-murine uPAR comprising murine D1/humanD2D3; murine D1/human D2/MuD3; and human D1D2/murineD3uPAR each with a C-terminal His tag were expressed as secreted proteins in HEK293T cells.

[5] = target: T4, lane 4: human DI/DII-murine DIII uPAR chimera (His-tagged); assay: as above
T4 construct: The sheet prints only the lane number; also called Human D1D2/Murine D3; human D1D2/murineD3uPAR
T4 uPAR ECD chimera: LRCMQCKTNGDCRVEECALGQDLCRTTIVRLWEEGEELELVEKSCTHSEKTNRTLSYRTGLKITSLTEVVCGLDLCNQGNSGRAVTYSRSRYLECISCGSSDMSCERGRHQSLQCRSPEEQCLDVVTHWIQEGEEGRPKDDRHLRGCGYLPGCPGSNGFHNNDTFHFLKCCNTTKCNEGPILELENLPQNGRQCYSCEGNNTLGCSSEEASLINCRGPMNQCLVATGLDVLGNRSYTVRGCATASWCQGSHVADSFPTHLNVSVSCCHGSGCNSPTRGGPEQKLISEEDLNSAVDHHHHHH
Excerpt: as §1, §2

[6] = target: T5, lane 2: murine DI/DII-human DIII uPAR chimera (His-tagged); assay: as above
T5 construct: The sheet prints only the lane number; also called Murine D1D2/Human D3
T5 uPAR ECD chimera: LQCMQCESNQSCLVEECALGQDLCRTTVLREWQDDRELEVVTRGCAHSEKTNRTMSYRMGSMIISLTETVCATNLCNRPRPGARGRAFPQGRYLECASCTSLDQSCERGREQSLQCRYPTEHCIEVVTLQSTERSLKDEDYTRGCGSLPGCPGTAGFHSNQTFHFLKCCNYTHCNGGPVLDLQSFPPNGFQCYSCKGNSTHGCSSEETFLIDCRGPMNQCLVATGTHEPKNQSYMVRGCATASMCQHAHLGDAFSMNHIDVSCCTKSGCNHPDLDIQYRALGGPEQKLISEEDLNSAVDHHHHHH
Excerpt: as §1, §2

[7] = target: T6, cynomolgus monkey uPAR, cell-bound (cynomolgus monkey, UniProt Q9GK78 23-305); assay: FACS, GeoMean; cynomolgus uPAR expressed on 293T cells; antibody concentration not given
T6 construct: whole, on cells; also called cyno-uPAR
T6 sequence (Q9GK78 23-305): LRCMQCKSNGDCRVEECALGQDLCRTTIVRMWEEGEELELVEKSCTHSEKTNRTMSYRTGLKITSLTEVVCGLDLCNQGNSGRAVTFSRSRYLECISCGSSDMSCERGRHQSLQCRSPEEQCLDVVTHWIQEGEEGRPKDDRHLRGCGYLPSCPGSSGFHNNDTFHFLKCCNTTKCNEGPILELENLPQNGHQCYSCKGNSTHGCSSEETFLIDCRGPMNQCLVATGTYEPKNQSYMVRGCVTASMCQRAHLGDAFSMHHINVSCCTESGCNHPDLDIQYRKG

Kd [1]: 0.249 nM | Kd [2]: 1.09 nM | LA at 20 ng/ml [3]: 0.63 | binding result [4]: binds | binding result [5]: no binding | binding result [6]: no binding
B1: fully human monoclonal antibody 2.6.1 (ATCC Accession Number PTA-7475) (antibody, V domains shown)
VH: EVQLVESGGGLIQPGGSLRLSCAASGFTVITNYMNWVRQAPGKGLEWVSIIYTGGSTSYADSVKGRFTVSRDNSKNTLYLHMNSLRVEDTAVYYCAREIAVAGYYGMDVWGQGTTVTVS
VL: DIQMTQSPSSLSASVGDRVTITCRASQGIRNDLGWYQQKPGKAPKRLIYAASSLQSGVPSRFSGSGSGTEFTLTISSLQPEDFATYYCLQHNSYPLTFGGGTRVEIK
notes: also called mAb 2.6.1

Kd [1]: 0.446 nM | binding result [7]: binds | LA at 20 ng/ml [3]: 0.27 | binding result [4]: binds | binding result [5]: no binding | binding result [6]: no binding
B2: fully human monoclonal antibody 4.18.1 (ATCC Accession Number PTA-7476) (antibody, V domains shown)
VH: EVQLVESGGGLIQPGGSLRLSCAASGFTVRNNYMNWVRQAPGKGLEWVSVIYTGGSTYYADSVKGRFTISRDNSRNTLYLQMNSLRAEDTAVYYCAREGAVAGFDYWGQGTLVTVSL
VL: EIVMTQFPATLSMSPGERATLSCRASQSVSSSLAWYQQTPGQAPRLLIYGASTRSTGFPARFSGIGSGTEFTLTISSLQSEDFAVYYCQQYGNWPLTFGQGTRLEIK

Kd [1]: 0.175 nM | Kd [2]: 0.346 nM | LA at 20 ng/ml [3]: 0.65 | binding result [4]: no binding | binding result [5]: binds | binding result [6]: no binding
B3: fully human monoclonal antibody 2.19.2 (ATCC Accession Number PTA-7474) (antibody, V domains shown)
VH: QVQLVESGGGVVQPGRSLRLSCAASGFTFSSYGMHWVRQAPGKGLEWVAVIWYDGSNKYYADSVKGRFTISRDNSKNTLYLQMNSLRAEDTAVYYCARDQHIVVVTAILDYWGQGTLVTVSS
VL: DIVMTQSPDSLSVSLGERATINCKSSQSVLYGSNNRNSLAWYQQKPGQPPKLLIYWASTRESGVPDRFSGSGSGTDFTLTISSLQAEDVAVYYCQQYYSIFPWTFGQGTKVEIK
